Target: T1, VEGFR1 (Flt1) on the membrane of HUVECs (human, UniProt P17948 27-1338)
T1 construct: whole, on cells; Endogenous receptor on HUVECs; also called fms-like tyrosine kinase-1
Test: fluorescence imaging of HUVECs with dye-conjugated cage
Description: HUVECs were spread onto a 48-well plate at 4×10⁴ cells/well and then cultured overnight. The HUVECs were incubated with 50 ng/mL human recombinant rhVEGF₁₆₅ and dye-conjugated fusion protein cage at different concentrations for 15, 30 and 60 minutes at 37° C. The HUVECs were imaged in a […] (Zeiss, Oberkochen, Germany) using FITC.
A maleimide-modified fluorescent dye was conjugated at the thiol of HPC, and the conjugation of the fluorescent dye to the polypeptide was qualitatively identified by SDS-PAGE. The fluorescent dye-conjugated anti-Flt1-HPC4-EBPP[A₁G₄I₁]₆-PEDF 34-mer-EBPP[A₁G₄I₁]₆-HPC5 was visualized by exposure to UV light on SDS-PAGE without gel staining. In FIG. 5 (A) (b), the location of the dye-conjugated polypeptide is compared under UV light with that of a marker in a bright-field mode. The location corresponded to that of the fusion polypeptide on the copper-stained SDS-PAGE gel prior to the dye conjugation (FIG. 5 (A) (a)). The conjugation of the dye to anti-Flt1-HPC4-EBPP[A₁G₄I₁]₆-PEDF 34-mer-EBPP[A₁G₄I₁]₆-HPC5 was confirmed from the fluorescence spectrum. […] HUVECs were spread onto a […] plate and then cultured overnight. The HUVECs were incubated with 1 μM or 10 μM dye-conjugated polypeptide for 15, 30 or 60 minutes. […]

T1 sequence (P17948 27-1338): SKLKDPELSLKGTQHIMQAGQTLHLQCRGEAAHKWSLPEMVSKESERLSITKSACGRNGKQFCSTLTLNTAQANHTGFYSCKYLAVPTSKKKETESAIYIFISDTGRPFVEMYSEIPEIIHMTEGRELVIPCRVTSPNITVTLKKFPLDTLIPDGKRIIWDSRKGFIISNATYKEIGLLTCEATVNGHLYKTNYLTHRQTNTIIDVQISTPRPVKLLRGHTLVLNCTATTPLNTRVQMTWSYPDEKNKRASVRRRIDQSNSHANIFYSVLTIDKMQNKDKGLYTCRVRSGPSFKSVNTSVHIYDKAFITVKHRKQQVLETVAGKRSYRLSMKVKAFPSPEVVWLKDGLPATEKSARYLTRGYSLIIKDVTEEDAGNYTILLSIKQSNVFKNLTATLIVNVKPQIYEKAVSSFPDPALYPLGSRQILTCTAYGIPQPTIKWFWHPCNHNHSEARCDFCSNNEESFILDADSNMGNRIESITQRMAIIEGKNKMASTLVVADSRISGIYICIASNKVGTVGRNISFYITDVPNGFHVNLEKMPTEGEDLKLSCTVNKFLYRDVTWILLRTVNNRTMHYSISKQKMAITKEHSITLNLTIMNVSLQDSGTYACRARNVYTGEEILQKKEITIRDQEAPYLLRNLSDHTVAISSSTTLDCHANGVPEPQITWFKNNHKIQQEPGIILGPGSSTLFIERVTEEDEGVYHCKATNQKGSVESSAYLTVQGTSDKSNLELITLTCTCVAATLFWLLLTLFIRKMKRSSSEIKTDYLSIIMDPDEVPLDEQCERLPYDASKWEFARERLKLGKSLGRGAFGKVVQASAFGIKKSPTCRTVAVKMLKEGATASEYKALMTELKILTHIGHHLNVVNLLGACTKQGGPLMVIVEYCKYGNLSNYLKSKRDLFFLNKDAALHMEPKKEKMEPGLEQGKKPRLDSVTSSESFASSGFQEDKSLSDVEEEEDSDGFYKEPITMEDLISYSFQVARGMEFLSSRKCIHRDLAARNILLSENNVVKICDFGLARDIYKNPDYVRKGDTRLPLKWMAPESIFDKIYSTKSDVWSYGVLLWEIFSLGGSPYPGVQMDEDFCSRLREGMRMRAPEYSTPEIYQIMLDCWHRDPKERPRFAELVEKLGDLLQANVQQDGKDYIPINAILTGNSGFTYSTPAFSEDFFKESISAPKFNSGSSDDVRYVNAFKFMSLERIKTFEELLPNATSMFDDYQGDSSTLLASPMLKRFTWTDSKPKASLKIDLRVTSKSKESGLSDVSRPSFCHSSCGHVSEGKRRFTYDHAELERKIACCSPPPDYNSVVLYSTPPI

B1: fluorescent dye-conjugated anti-Flt1-HPC4-EBPP[A1G4I1]6-PEDF 34-mer-EBPP[A1G4I1]6-HPC5 (designed binder)
chain: GNQWFISSQIRQNYSTDVEAAVNSLVNLYLQASYTYLSLGFYFDRDDVALEGVSHFFRELAEEKREGYERLLKMQNQRGGRALFQDIKKPAEDEWGKTPDAMKAAMALEKKLNQALLDLHALGSARTDPHLCDFLETHFLDEEVKLIKKMGDHLTNLHRLGGVPAGGVPAAGVPAGGVPAGGVPAIGVPAGGVPAGGVPAAGVPAGGVPAGGVPAIGVPAGGVPAGGVPAAGVPAGGVPAGGVPAIGVPAGGVPAGGVPAAGVPAGGVPAGGVPAIGVPAGGVPAGGVPAAGVPAGGVPAGGVPAIGVPAGGVPAGGVPAAGVPAGGVPAGGVPAIGVPAGGDPFFKVPVNKLAAAVSNFGYDLYRVRSSTSPTTNVPAGGVPAAGVPAGGVPAGGVPAIGVPAGGVPAGGVPAAGVPAGGVPAGGVPAIGVPAGGVPAGGVPAAGVPAGGVPAGGVPAIGVPAGGVPAGGVPAAGVPAGGVPAGGVPAIGVPAGGVPAGGVPAAGVPAGGVPAGGVPAIGVPAGGVPAGGVPAAGVPAGGVPAGGVPAIGVPAGGPEAGLGEYLFERLTLKHD
modifications: Alexa Fluor 488 C5 maleimide conjugated at cysteine (thiol of HPC) via thiol-maleimide reaction
notes: also called dye-conjugated fusion protein cage; dye-conjugated polypeptide
- binding result: binds

Reference: patent US20220331453A1 (INDUSTRY UNIVERSITY COOPERATION FOUNDATION HANYANG …, published 2022)
